Results reported in article PMC11090158.

Biological target: GST-tag DNA polymerase (pol) β, wild-type (human) (UniProt P06746)
Assay: SPR

- Kd: 2700 nM
Substance: X-ray cross-complementing protein 1 (XRCC1) V86R, 6x-his tag (from UniProt P18887 1-633) (natural protein)
